Patent US20240067690A1
Where two headings read alike, the source gives them in different places.

B1: IL2(3m)-Fc (REGN8190) (Fc fusion)
chain: APTSSSTKKTQLQLEHLLLDLQMILNGINNYKNPKLTRMLTAKFAMPKKATELKHLQCLEEELKPLEEVLNGAQSKNFHLRPRDLISNINVIVLELKGSETTFMCEYADETATIVEFLNRWITFCQSIISTLTGGGGSESKYGPPCPPCPAPPVAGPSVFLFPPKPKDTLMISRTPEVTCVVVDVSQEDPEVQFNWYVDGVEVHNAKTKPREEQFNSTYRVVSVLTVLHQDWLNGKEYKCKVSNKGLPSSIEKTISKAKGQPREPQVYTLPPSQEEMTKNQVSLTCLVKGFYPSDIAVEWESNGQPENNYKTTPPVLDSDGSFFLYSRLTVDKSRWQEGNVFSCSVMHEALHNHYTQKSLSLSLGK

Legend:
Assay in all cases: cell-based or functional assay
[1] = target: high affinity (IL2Ra/b/g) IL2 receptor on YT/STAT5-Luc/hIL2Ra reporter cells (human; human (human T/NK cell leukemia YT cell line)) (UniProt P01589)
UniProt P01589, sequence (P01589 22-272, chain 1 of 3): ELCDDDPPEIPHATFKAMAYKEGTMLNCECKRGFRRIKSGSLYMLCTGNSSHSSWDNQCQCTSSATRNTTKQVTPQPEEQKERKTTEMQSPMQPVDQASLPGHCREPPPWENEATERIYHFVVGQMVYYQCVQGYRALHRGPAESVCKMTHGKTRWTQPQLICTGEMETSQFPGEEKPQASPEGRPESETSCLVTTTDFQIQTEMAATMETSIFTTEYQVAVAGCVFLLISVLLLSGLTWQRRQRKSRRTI
UniProt P01589, sequence (P14784 27-551, chain 2 of 3, further chain): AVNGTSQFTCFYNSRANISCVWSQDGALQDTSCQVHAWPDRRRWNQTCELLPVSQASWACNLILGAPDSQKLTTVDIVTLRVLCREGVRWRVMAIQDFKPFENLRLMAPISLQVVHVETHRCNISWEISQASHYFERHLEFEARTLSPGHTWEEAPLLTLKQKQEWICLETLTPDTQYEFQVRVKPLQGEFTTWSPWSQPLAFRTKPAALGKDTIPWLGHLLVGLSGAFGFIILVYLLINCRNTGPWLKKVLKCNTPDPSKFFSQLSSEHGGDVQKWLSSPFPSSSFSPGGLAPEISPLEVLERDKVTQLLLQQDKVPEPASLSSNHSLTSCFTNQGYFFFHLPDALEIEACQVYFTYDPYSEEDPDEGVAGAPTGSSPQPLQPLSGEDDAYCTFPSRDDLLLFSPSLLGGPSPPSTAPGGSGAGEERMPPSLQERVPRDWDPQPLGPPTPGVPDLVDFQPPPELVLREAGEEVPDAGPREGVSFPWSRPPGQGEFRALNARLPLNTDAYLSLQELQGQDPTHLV
UniProt P01589, sequence (P31785 23-369, chain 3 of 3, further chain): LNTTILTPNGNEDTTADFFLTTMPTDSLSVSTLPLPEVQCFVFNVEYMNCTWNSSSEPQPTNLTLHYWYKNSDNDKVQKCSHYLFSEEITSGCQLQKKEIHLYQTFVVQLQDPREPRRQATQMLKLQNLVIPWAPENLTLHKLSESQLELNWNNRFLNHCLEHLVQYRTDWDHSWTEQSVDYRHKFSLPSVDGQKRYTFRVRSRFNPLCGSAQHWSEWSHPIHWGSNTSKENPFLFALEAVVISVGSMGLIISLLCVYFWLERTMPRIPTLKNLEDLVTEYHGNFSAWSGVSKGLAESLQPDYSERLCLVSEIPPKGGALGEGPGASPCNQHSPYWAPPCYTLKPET

[2] = target: low affinity (IL2Rb/g) IL2 receptor on YT/STAT5-Luc/IL2Ra KO reporter cells (human (human T/NK cell leukemia YT cell line)) (UniProt P14784)
UniProt P14784, sequence (P14784 27-551, chain 1 of 2): as the sequence (P14784 27-551, chain 2 of 3, further chain) above
UniProt P14784, sequence (P31785 23-369, chain 2 of 2, further chain): as the sequence (P31785 23-369, chain 3 of 3, further chain) above

[3] = target: high affinity (IL2Ra/b/g) IL2 receptor on YT/STAT5-Luc/hIL2Ra reporter cells (human; human (human T/NK cell leukemia YT cell line)) (UniProt P01589); remark: listed apart in the source
[4] = target: low affinity (IL2Rb/g) IL2 receptor on YT/STAT5-Luc/IL2Ra KO reporter cells (human (human T/NK cell leukemia YT cell line)) (UniProt P14784); remark: listed apart in the source

Row | Molecule | EC50, STAT5-luciferase reporter assay, YT/Stat5-Luc/hIL2Ra cells (M (unit not given)) [1] | EC50, STAT5-luciferase reporter assay, YT/Stat5-Luc/IL2Ra KO cells [2] [nM] | further results
1 | IL2(E68C)-mmh (REGN7184), dimeric human IL-2 (E68C) with a C-terminal myc-myc-hexahistidine (mmh) tag (ligand) | 5.63e-10 | 0.847 | fold less potency than IL2-mmh (REGN7183), STAT5-luciferase reporter assay, YT/STAT5-Luc/hIL2Ra cells [1]: 34 fold
2 | IL2-Fc (REGN8189) (Fc fusion) |  | 0.542 | 
3 | IL2-Fc (REGN8189) (Fc fusion; in M (unit assumed)) | 1.69e-11 |  | 
4 | IL2-mmh (REGN7183), monomeric human IL-2 with a C-terminal myc-myc-hexahistidine (mmh) tag (ligand) |  | 0.622 | 
5 | IL2-mmh (REGN7183), monomeric human IL-2 with a C-terminal myc-myc-hexahistidine (mmh) tag (ligand; in M (unit assumed)) | 1.65e-11 |  | 
6 | B1 |  |  | EC50, STAT5-luciferase reporter assay, YT/Stat5-Luc/hIL2Ra cells (M (unit not given)) [3]: 5.17e-11; fold less potency than IL2-Fc (REGN8189), STAT5-luciferase reporter assay, YT/STAT5-Luc/hIL2Ra cells [3]: 3 fold; EC50, STAT5-luciferase reporter assay, YT/Stat5-Luc/IL2Ra KO cells [4]: 0.628 nM
